Test results from paper PMC5469197, “ANGUSTIFOLIA, a Plant Homolog of CtBP/BARS Localizes to Stress Granules and Regulates Their Formation” (Frontiers in Plant Science, 2017).

Columns and labels:
Experiment in all cases: co-IP; LUMIER in HEK293TN cells: Prot-A fusion co-transfected with Renilla luciferase fusion (AN always the luciferase fusion with the interactors); luciferase activity before (input) and after pulldown; percentage pulldown = pulldown/input x 100; empty vectors as negative control; positive if more than two times the background
Details in all cases: partners not purified
[1] = molecular target: T1, EUKARYOTIC INITIATION FACTOR 4E1 (EIF4E1), Prot-A fusion (Arabidopsis thaliana, UniProt O23252 1-235)
T1 construct: Eukaryotic initiation factor 4E1, Arabidopsis thaliana, AT4G18040; CDS amplified from Col-0 cDNA; source: HEK293TN cells, transfected; not shown: Protein A (Staphylococcus aureus), N-terminal, kept
T1 sequence (looked up): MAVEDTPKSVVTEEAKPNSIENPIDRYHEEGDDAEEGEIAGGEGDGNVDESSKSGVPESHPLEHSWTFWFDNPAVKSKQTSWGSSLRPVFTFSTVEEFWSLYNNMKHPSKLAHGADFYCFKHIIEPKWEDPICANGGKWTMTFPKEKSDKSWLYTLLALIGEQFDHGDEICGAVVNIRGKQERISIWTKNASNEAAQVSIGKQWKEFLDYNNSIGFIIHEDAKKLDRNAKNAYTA

[2] = molecular target: T2, PO…-BINDING PROTEIN RBP47C′, Prot-A fusion (Arabidopsis thaliana, UniProt Q9SX80 1-434)
T2 construct: RBP47C′, Arabidopsis thaliana, AT1G47500; CDS amplified from Col-0 cDNA; source: HEK293TN cells, transfected; not shown: Protein A (Staphylococcus aureus), N-terminal, kept
T2 sequence (looked up): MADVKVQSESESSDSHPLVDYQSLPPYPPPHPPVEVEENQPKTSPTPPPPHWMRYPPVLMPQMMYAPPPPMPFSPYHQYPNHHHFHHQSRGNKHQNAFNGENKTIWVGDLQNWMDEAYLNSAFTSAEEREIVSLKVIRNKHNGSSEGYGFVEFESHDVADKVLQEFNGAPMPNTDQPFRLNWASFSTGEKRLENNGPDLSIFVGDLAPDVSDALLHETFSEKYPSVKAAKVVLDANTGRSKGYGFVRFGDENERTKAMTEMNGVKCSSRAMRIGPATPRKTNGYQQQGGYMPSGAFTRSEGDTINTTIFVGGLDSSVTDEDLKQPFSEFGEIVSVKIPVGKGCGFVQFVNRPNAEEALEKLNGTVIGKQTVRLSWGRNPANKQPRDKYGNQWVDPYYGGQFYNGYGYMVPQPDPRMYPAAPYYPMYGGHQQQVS

[3] = molecular target: T3, RNA BINDING PROTEIN 47B (RBP47B), Prot-A fusion (Arabidopsis thaliana, UniProt Q0WW84 1-435)
T3 construct: RBP47B, Arabidopsis thaliana, AT3G19130; CDS amplified from Col-0 cDNA; source: HEK293TN cells, transfected; not shown: Protein A (Staphylococcus aureus), N-terminal, kept
T3 sequence (looked up): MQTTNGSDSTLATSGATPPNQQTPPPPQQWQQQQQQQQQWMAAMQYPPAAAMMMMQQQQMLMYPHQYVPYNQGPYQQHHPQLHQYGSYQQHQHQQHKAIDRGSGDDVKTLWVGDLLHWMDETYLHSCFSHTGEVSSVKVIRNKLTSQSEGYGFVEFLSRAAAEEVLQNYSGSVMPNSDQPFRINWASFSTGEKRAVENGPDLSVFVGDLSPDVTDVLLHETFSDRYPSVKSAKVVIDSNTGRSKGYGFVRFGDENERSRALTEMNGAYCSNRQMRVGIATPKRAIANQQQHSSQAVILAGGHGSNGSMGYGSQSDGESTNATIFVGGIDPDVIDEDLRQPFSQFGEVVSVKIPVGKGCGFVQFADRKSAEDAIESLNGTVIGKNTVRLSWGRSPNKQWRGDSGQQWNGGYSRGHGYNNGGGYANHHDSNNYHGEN

[4] = molecular target: T4, EIF (ISO) 4E, Prot-A fusion (Arabidopsis thaliana, UniProt O04663 1-198)
T4 construct: EIF(iso)4E, Arabidopsis thaliana, AT5G35620; CDS amplified from Col-0 cDNA; source: HEK293TN cells, transfected; not shown: Protein A (Staphylococcus aureus), N-terminal, kept
T4 sequence (looked up): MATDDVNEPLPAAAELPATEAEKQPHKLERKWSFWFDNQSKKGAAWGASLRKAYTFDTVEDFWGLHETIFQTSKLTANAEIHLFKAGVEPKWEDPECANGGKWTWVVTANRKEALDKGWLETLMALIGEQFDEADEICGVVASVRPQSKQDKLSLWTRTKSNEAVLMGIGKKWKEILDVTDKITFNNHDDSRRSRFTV

B1: AN, Renilla luciferase fusion (LUMIER) (natural protein, Arabidopsis thaliana, UniProt O23702 1-636, looked up)
chain: MSKIRSSATMPHRDQPSPASPHVVTLNCIEDCALEQDSLAGVAGVEYVPLSRIADGKIESATAVLLHSLAYLPRAAQRRLRPHQLILCLGSADRAVDSTLAADLGLRLVHVDTSRAEEIADTVMALILGLLRRTHLLSRHALSASGWLGSLQPLCRGMRRCRGMVLGIVGRSVSARYLASRSLAFKMSVLYFDVPEGDEERIRPSRFPRAARRMDTLNDLLAASDVISLHCALTNDTVQILNAECLQHIKPGAFLVNTGSCQLLDDCAVKQLLIDGTIAGCALDGAEGPQWMEAWVKEMPNVLILPRSADYSEEVWMEIREKAISILHSFFLDGVIPSNTVSDEEVEESEASEEEEQSPSKHEKLAIVESTSRQQGESTLTSTEIVRREASELKESLSPGQQHVSQNTAVKPEGRRSRSGKKAKKRHSQQKYMQKTDGSSGLNEESTSRRDDIAMSDTEEVLSSSSRCASPEDSRSRKTPLEVMQESSPNQLVMSSKKFIGKSSELLKDGYVVALYAKDLSGLHVSRQRTKNGGWFLDTLSNVSKRDPAAQFIIAYRNKDTVGLRSFAAGGKLLQINRRMEFVFASHSFDVWESWSLEGSLDECRLVNCRNSSAVLDVRVEILAMVGDDGITRWID
notes: ANGUSTIFOLIA (AN), Arabidopsis thaliana, AT1G01510; CDS amplified from Col-0 cDNA; in the dimerisation test the second copy must have been the N-terminal protein A fusion (surmised from the LUMIER format); also called wild-type AN; source: HEK293TN cells, transfected; not shown: Renilla reniformis luciferase, N-terminal, kept
**Q.** What does the source list for B1?
**A.** fold change from background [1]: 2.83 fold; percentage pulldown [1]: 0.27%; fold change from background [2]: 3.07 fold; percentage pulldown [2]: 0.29%; fold change from background [3]: 3.53 fold; percentage pulldown [3]: 0.33%; fold change from background [4]: 4.09 fold; percentage pulldown [4]: 0.39%
